Measured values reported in the supplement of paper PMC10724198.
± gives the standard deviation of the averaged measurements.

Tested on: Saccharomyces cerevisiae
Experiment: protein stability index of tFT-peptide fusion (C-terminal peptide) (PSI (0-1 scale)); higher = more stable (slower turnover)
Conditions: genetic background: wild type; temperature: 30 C
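Note: PSI is a weighted mean of sequencing reads over stability bins, variants kept only with over 10 reads, mCherry proximal and sfGFP distal, peptide attached via GGGS linker.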

Row | Sequence | protein stability index
1 | PERAPASRWTLS | 0.7362 ± 0.0049
2 | PESPLFPPLLPS | 0.6599 ± 0.0018
3 | PESRAESAKPRD | 0.667 ± 0.019
4 | PEVRTNKQHQER | 0.746 ± 0.055
5 | PFAGLFFFFVPF | 0.58 ± 0.033
6 | PFAPFIHNFGCT | 0.713 ± 0.023
7 | PFAYFSRFLYFP | 0.633 ± 0.03
8 | PFGSSPLCGSSF | 0.683 ± 0.032
9 | PFGTFFFPSFLL | 0.683 ± 0.0032
10 | PFIDCEHIRGFN | 0.735 ± 0.046
11 | PFIPPPRFPPPV | 0.835 ± 0.074
12 | PFLIPPRPFSFP | 0.709 ± 0.1
13 | PFLRLLQTVGST | 0.593 ± 0.024
14 | PFLTSPPPLPLH | 0.632 ± 0.031
15 | PFMFLSSCSGFF | 0.735 ± 0.019
16 | PFPAPPPPPPPP | 0.678 ± 0.064
17 | PFPLSPPPPPLD | 0.761 ± 0.045
18 | PFPPPPVPHARR | 0.775 ± 0.22
19 | PFPPPTPPPPLP | 0.751 ± 0.077
20 | PFPPRRPSATTL | 0.727 ± 0.045
21 | PFPSFFFCCISL | 0.507 ± 0.0075
22 | PFRPPPLLPFSP | 0.799 ± 0.13
23 | PFSGPVYSHNDV | 0.738 ± 0.08
24 | PFSLIFSFFSEV | 0.7487 ± 0.0047
25 | PFSSPPPLSLPP | 0.7308 ± 0.0011
26 | PGALILSNRFFS | 0.685 ± 0.041

Row | Sequence | protein stability index
27 | PGAPPPASPPST | 0.714 ± 0.047
28 | PGCNLPLVPPRL | 0.701 ± 0.018
29 | PGFFRLSLFPFA | 0.713 ± 0.0083
30 | PGGLHHGCSTPA | 0.724 ± 0.0087
31 | PGGQGVRTDRPQ | 0.678 ± 0.025
32 | PGGTDGYSGLEK | 0.689 ± 0.011
33 | PGIGMVCAVAEG | 0.687 ± 0.0082
34 | PGLSLPLPPPRP | 0.703 ± 0.035
35 | PGLTAVVYRPAD | 0.724 ± 0.04
36 | PGPHGVVPTGNE | 0.6666 ± 0.0056
37 | PGPPPPPPALLP | 0.658 ± 0.056
38 | PGPPSTAPHLPE | 0.659 ± 0.018
39 | PGPPTPPPPLYP | 0.706 ± 0.012
40 | PGPTNSSLTASD | 0.7667 ± 0.0037
41 | PGSCAYHIFRFR | 0.583 ± 0.0062
42 | PGSLPPPPPPPP | 0.716 ± 0.016
43 | PGSLSLSPLLPS | 0.758 ± 0.037
44 | PGTGAASGTGGA | 0.689 ± 0.012
45 | PGTLLHPLSVGR | 0.668 ± 0.019
46 | PGWDSHRKILSQ | 0.68 ± 0.0083
47 | PHADFALFPFSP | 0.785 ± 0.036
48 | PHAERASPDGLS | 0.664 ± 0.063
49 | PHASLAPPLPPP | 0.5801 ± 0.0042
50 | PHCPPPPSLSPP | 0.791 ± 0.094
51 | PHFLNNRNTIRR | 0.714 ± 0.04
52 | PHHAPRPPPFAG | 0.646 ± 0.05

Row | Sequence | protein stability index
53 | PHLPSSPSPYSP | 0.689 ± 0.0043
54 | PHPAPPPSPSPS | 0.715 ± 0.033
55 | PHPATLPPPAPT | 0.699 ± 0.032
56 | PHPGVPPTFLSL | 0.657 ± 0.11
57 | PHPLPSPSPPPH | 0.69228 ± 0.00045
58 | PHPPPVPAPPPP | 0.663 ± 0.008
59 | PHPPSCPLTPPP | 0.666 ± 0.015
60 | PHPRPPLAPPLT | 0.688 ± 0.038
61 | PHRPPPCLPFGS | 0.728 ± 0.039
62 | PHSGVVVRCPSG | 0.704 ± 0.022
63 | PHSPLPAHPPCR | 0.745 ± 0.14
64 | PHSPPSLSPTPP | 0.685 ± 0.06
65 | PHSPSSPTIPSS | 0.7363 ± 0.0069
66 | PHSSPSHRLSLP | 0.722 ± 0.035
67 | PHTGVKRDIENE | 0.693 ± 0.092
68 | PIDYRPEPYALP | 0.775 ± 0.034
69 | PIGFSHISFSPS | 0.645 ± 0.1
70 | PINALLHNKRES | 0.721 ± 0.082
71 | PIPPHGTPPAAY | 0.694 ± 0.036
72 | PIPPPAPPPAPP | 0.6778 ± 0.0036
73 | PIPPPPRACGPS | 0.7 ± 0.02
74 | PIPSPAPLPPRP | 0.675 ± 0.0073
75 | PIRPQSSVSLKQ | 0.64958 ± 0.00064
76 | PIRPSPPVLPPL | 0.647 ± 0.11
77 | PISLFLSSSAPL | 0.729 ± 0.053
78 | PISTHYGSAVFM | 0.692 ± 0.029

Row | Sequence | protein stability index
79 | PITFPPSLPPPP | 0.666 ± 0.045
80 | PIVLALPTFPPL | 0.716 ± 0.048
81 | PIWRLVMRCCRS | 0.575 ± 0.022
82 | PKKGKKKLREKS | 0.728 ± 0.051
83 | PKKTTIQRDKTN | 0.607 ± 0.027
84 | PKNNHTKKKTGQ | 0.677 ± 0.0093
85 | PKPNRAHSTTHR | 0.691 ± 0.008
86 | PKRTHDPAPKTT | 0.70897 ± 0.00058
87 | PKRTTHIGRIHE | 0.6875 ± 0.006
88 | PKSGRAVMQGEG | 0.631 ± 0.071
89 | PKSRTLKDITIF | 0.684 ± 0.024
90 | PLAPPRSPHLPP | 0.673 ± 0.041
91 | PLAPSSHLHPSP | 0.75 ± 0.0015
92 | PLATLIPPLIPS | 0.554 ± 0.084
93 | PLCLPALPPPLP | 0.676 ± 0.097
94 | PLFLLPSSPPAS | 0.757 ± 0.06
95 | PLFLPALPPPLP | 0.687 ± 0.11
96 | PLFPACYFHPFD | 0.746 ± 0.032
97 | PLFYSLCFFCGL | 0.667 ± 0.044
98 | PLGGLTLNIIEC | 0.701 ± 0.0089
99 | PLGPPPPPPLPS | 0.7222 ± 0.0058
100 | PLHHPPSPRLPP | 0.617 ± 0.018
101 | PLHLYPHPPTHS | 0.698 ± 0.078
102 | PLHSPPSRPCQL | 0.691 ± 0.065
103 | PLHVSLVRFGCP | 0.633 ± 0.032
104 | PLHYPTPCHPLP | 0.726 ± 0.052

Row | Sequence | protein stability index
105 | PLKTDSVPEFTA | 0.5811 ± 0.0033
106 | PLLASRFLQVGF | 0.678 ± 0.0074
107 | PLLLHHPPPRVP | 0.666 ± 0.029
108 | PLLPLPPNPSPP | 0.681 ± 0.022
109 | PLLPSPPLLLPS | 0.819 ± 0.12
110 | PLLSYSPPAPPP | 0.664 ± 0.024
111 | PLLTPPFFPPPP | 0.7588 ± 0.0053
112 | PLNQKPPDWPTQ | 0.734 ± 0.015
113 | PLNSNSYDASPL | 0.658 ± 0.052
114 | PLPALPPPPRGP | 0.636 ± 0.026
115 | PLPAPPLPPRSP | 0.703 ± 0.012
116 | PLPDPPPTPSGT | 0.682 ± 0.058
117 | PLPGPSPPPAPP | 0.648 ± 0.044
118 | PLPHPPPPPPLP | 0.768 ± 0.026
119 | PLPINAGVRITP | 0.671 ± 0.1
120 | PLPLHLATPHLF | 0.694 ± 0.05
121 | PLPLPLPSRPRP | 0.653 ± 0.044
122 | PLPMPHPRSRST | 0.673 ± 0.014
123 | PLPPCSARPPPR | 0.7657 ± 0.0042
124 | PLPPDPPCPPPP | 0.651 ± 0.072
125 | PLPPLPPPLPAP | 0.705 ± 0.052
126 | PLPPLPSTHPTL | 0.698 ± 0.035
127 | PLPPPLPNPPPS | 0.667 ± 0.074
128 | PLPPPLPPPGPH | 0.731 ± 0.053
129 | PLPPPPARLPSP | 0.703 ± 0.017
130 | PLPPPPHPLLLL | 0.681 ± 0.024

Row | Sequence | protein stability index
131 | PLPPPPRLPPRH | 0.677 ± 0.04
132 | PLPPPPYPPTLL | 0.592 ± 0.016
133 | PLPPPSPSSLSP | 0.713 ± 0.074
134 | PLPPRSPPRRPS | 0.634 ± 0.079
135 | PLPPSAPPLPPS | 0.778 ± 0.091
136 | PLPSFPFPRPSS | 0.634 ± 0.037
137 | PLPSHSRSRHPR | 0.744 ± 0.075
138 | PLPSLLLLPPFP | 0.701 ± 0.058
139 | PLPSPPPPFLSL | 0.71 ± 0.048
140 | PLPSPPPSATSL | 0.602 ± 0.045
141 | PLPTPTPPPPAP | 0.734 ± 0.028
142 | PLPTSRKSFGLV | 0.665 ± 0.06
143 | PLPWIFHCRAPL | 0.719 ± 0.048
144 | PLQEHYRQIFPD | 0.71 ± 0.0044
145 | PLQFLPPLPCVS | 0.539 ± 0.039
146 | PLQFSLADEFST | 0.705 ± 0.02
147 | PLRFSSFSFPGW | 0.739 ± 0.13
148 | PLRRPPRLPAPP | 0.7 ± 0.11
149 | PLRTRESIGARG | 0.707 ± 0.038
150 | PLSASPLPPFSR | 0.734 ± 0.11
151 | PLSCDSPFVNPT | 0.737 ± 0.042
152 | PLSFPALFSPLS | 0.684 ± 0.034
153 | PLSHSPPAPSSP | 0.658 ± 0.026
154 | PLSLICLLKSYL | 0.708 ± 0.025
155 | PLSLPLSLLCPP | 0.698 ± 0.051
156 | PLSLPPPSPRPP | 0.657 ± 0.013

Row | Sequence | protein stability index
157 | PLSLSVPPAFFI | 0.538 ± 0.14
158 | PLSPLALLPLRF | 0.694 ± 0.065
159 | PLSPLSLSPVAP | 0.62 ± 0.026
160 | PLSPPPPSHIPP | 0.653 ± 0.023
161 | PLTNPPCLTKYP | 0.793 ± 0.033
162 | PLTPPPAVHTYL | 0.72 ± 0.037
163 | PLTPVSPSPNPV | 0.648 ± 0.042
164 | PLTSNTSPPPMT | 0.618 ± 0.072
165 | PLVQSSCCRNYY | 0.7 ± 0.04
166 | PLVVPPSPRPPP | 0.735 ± 0.063
167 | PLWAVRPLLPPE | 0.677 ± 0.016
168 | PMADACPAPPPQ | 0.643 ± 0.041
169 | PMPGATDCQRGC | 0.615 ± 0.053
170 | PNFPEPSLTDAL | 0.716 ± 0.04
171 | PNGSRPAHGVKN | 0.646 ± 0.032
172 | PNLPRHPFPPSS | 0.74 ± 0.011
173 | PNLTYNTLRVVL | 0.638 ± 0.04
174 | PNNANHIKHRQY | 0.6722 ± 0.0012
175 | PNPEKPPGAPGQ | 0.63 ± 0.087
176 | PNPHDPQLPPPH | 0.709 ± 0.05
177 | PNPHGRPSIPAL | 0.65 ± 0.039
178 | PNPIHHPTSTTA | 0.672 ± 0.053
179 | PNQTRPHPHHNL | 0.69 ± 0.02
180 | PNRSPPLPRPLM | 0.693 ± 0.0074
181 | PPAICSFLSPPF | 0.655 ± 0.017
182 | PPALSLPAPLLP | 0.6592 ± 0.0039

Row | Sequence | protein stability index
183 | PPAPPARFPSPP | 0.711 ± 0.068
184 | PPAPPPLPPPTH | 0.633 ± 0.049
185 | PPAPPPLSPSPI | 0.832 ± 0.04
186 | PPAPRPRSPSPL | 0.719 ± 0.0085
187 | PPAPRVSPPPPP | 0.712 ± 0.073
188 | PPAPSSLTASPF | 0.71 ± 0.08
189 | PPARLPLPPPSP | 0.753 ± 0.061
190 | PPARPLFPLPRL | 0.754 ± 0.077
191 | PPASSPRRPTPP | 0.675 ± 0.011
192 | PPDGRPPPLRLM | 0.679 ± 0.014
193 | PPDSPSPLPPPP | 0.681 ± 0.054
194 | PPFLSPLRPPSL | 0.781 ± 0.09
195 | PPFPARPRPHPV | 0.6623 ± 0.0056
196 | PPFPLACPPLLF | 0.657 ± 0.11
197 | PPFPPPPPPPLS | 0.714 ± 0.05
198 | PPFRPRPPPPSA | 0.812 ± 0.17
199 | PPFRRPPPDPQP | 0.7343 ± 0.0059
200 | PPFSTPFLPPSS | 0.727 ± 0.072
201 | PPFTLRPQVPTH | 0.664 ± 0.0097
202 | PPGQRGRRDRAA | 0.647 ± 0.015
